This data set deals with the molecule itself. As to the kind of experiment: crystal structure.

B1: human TREX2 protein (enzyme)
chain: MSEAPRAETFVFLDLEATGLPSVEPEIAELSLFAVHRSSLENPEHDESGALVLPRVLDKLTLCMCPERPFTAKASEITGLSSEGLARCRKAGFDGAVVRTLQAFLSRQAGPICLVAHNGFDYDFPLLCAELRRLGARLPRDTVCLDTLPALRGLDRAHSHGTRARGRQGYSLGSLFHRYFRAEPSAAHSAEGDVHTLLLIFLHRAAELLAWADEQARGWAHIEPMYLPPDDPSLEA
With B1, the binding result is recorded as “binds”.

The values are drawn from publication PMC2673414 (Nucleic Acids Research, 2009).
